Laboratory results taken from IntAct's records for PubMed 22364545.

B1: Fibroblast growth factor 14 (Homo sapiens), Q92915-2 (parent)
chain: MVKPVPLFRRTDFKLLLCNHKDLFFLRVSKLLDCFSPKSMWFLWNIFSKGTHMLQCLCGKSLKKNKNPTDPQLKGIVTRLYCRQGYYLQMHPDGALDGTKDDSTNSTLFNLIPVGLRVVAIQGVKTGLYIAMNGEGYLYPSELFTPECKFKESVFENYYVIYSSMLYRQQESGRAWFLGLNKEGQAMKGNRVKKTKPAAHFLPKPLEVAMYREPSLHDVGETVPKPGVTPSKSTSASAIMNGGKPVNKSKTT

Variants of: B1
Settings: with scn8a_human SCN8A

| effect of a mutation on the interaction | Variant |
| --- | --- |
| decreasing interaction strength | MVKPVPLFRRTDFKLLLCNHKDLFFLRVSKLLDCFSPKSMWFLWNIFSKGTHMLQCLCGKSLKKNKNPTDPQLKGIVTRLYCRQGYYLQMHPDGALDGTKDDSTNSTLFNLIPVGLRVVAIQGVKTGLYIAMNGEGYLYPSELFTPECKFKESVFENNYNIYSSMLYRQQESGRAWFLGLNKEGQAMKGNRVKKTKPAAHFLPKPLEVAMYREPSLHDVGETVPKPGVTPSKSTSASAIMNGGKPVNKSKTT [Y158N;V160N] |
